These results are taken from a protein production outcome set (Wang et al. 2014).

This data set is described as follows: label from the status in PepcDB records.
As to “MMKEMTVQQMTEKVLNKESLFILDVRNESDFRDWKIEGENFAYLNVPYFELVHGVDSIVDRLPKDQDIVVVCAKGGSAAFVAEQLAEAGFDNVYTLAGGMQAWSEHLHQAKVYEDDQLKIYQFIRVGKGCLSYMVLSGDEALVVDPLRFIDVYEQVAQQEGVTITHIVDSHLHADHLSGGKALAERTGAAYYLMKSEGAVFDFEPLEQHETIDFENVHLEVLAVKTPGHTPGSVSFFVNGKWLFSGDTIFVGGLGRPDLGGKVAEWAEDLYHTVYEKVAAMADDVIVLPAHYANLDEEINAEGYVGDTLGRIRARNEMMQNKAKDEFIDLVIQGAKTETPPNFEDIVAINRGLKTVDIETQRELEIGPNRCALHHTHA”, the protein production result is given as “failed”.

“PPPAPIPDLKVFEREGVQLNLSFIRPPENPALLLITITATNFSEGDVTHFICQAAVPKSLQLQLQAPSGNTVPARGGLPITQLFRILNPNKAPLRLKLRLTYDHFHQSVQEIFEVNNLPVESWQ”: the protein production entry is listed as “not failed”.

On to “MFGISISSAILHFVIGGFAVALASIMADKVGGKLGGIIATMPAVYLAAIIALAIDHKGQQLIQMSIHLSTGAIVGIVSCIVTVFFTSIFIGKKNYRSGTVFAILCWFVISVAIFLVRHI”, for which the protein production entry was “failed”.

Consider “MKFILRLGLALLTGFVSVSTASAQAYGTADTNAPELRVPKSVQPAFDYWMRDTWATLGPDGYYYITGTTSTPDRHFPGQRHCWDWNDGLYLWRSKDLKIWEAMGRIWSMEKDGTWQKDPKVYKEGEKYAKKSINNDPMDNRFHAVWAPEMHYIKSAKNWFIVACMNQSAGGRGSFILRSTTGKPEGPYENIEGNEDKAIFPNIDGSLFEDTDGTVYFVGHNHYIARMKPDMSGLAEEIKTLKESKYSPEPYVEGAFIFKYDGKYHLVQAIWAHRTVKGDTYVEKEGLTNKKTRYSYDCIIATADNVYGPYGKRYNAITGGGHNNLFQDKDGNWWATMFFNPRGAQAAEYKVTCRPGLIPMLYENGKFKPNHNYQAK”, for which the protein production result is listed as “failed”.

Consider “MVRHRGNKEERQQALRRYLRSNPFATDEELAEKFEVSVPTIRLDRLALGIPEVRERIMAMAQEARSRMRGVTAEELVGELVELQPGVMGISILEITPPMLVQPAGVARGYYLFAQAHSLALATVGAEVVLTSSARVRYRRPVYAGERVVARAMVKVVKDSTCLVSVHSRVNGEIVFKGRYIIITPDAATGGGSA”, for which the protein production entry is “failed”.

“LIHKYKNFVRAKSRSYFLVGADREDIVQEGMIGLFKAIRDYKEDKLSSFKAFAELCITRQIITAIKTATRQKHIPLNSYVSLDKPIYDEESDRTLLDVISEAKVTDPEEMIISQEEYTDIESKISELLSDLERKVLSLYLDGRSYQEISEQLNRHVKSIDNALQRVKRKLERYMEMRESTTLNS”: the protein production result is listed as “not failed”.

As to “MKKSLDEHAERFSDHADAYDEDQDSAAYRACVNFVVDHAAPESDDVVLDLGTGTGAIAFALASDAAEIIGRDISDGMLEKAREKADGRGVENVSFGDGRFRAPNVDRPVDIVTSNFAMHHLGDDEKREAIDTIADLGPRRIVLGDVMLFGDDDPDAPFYSPEVDDPATVGVLADAFTDAGYALTAVEMVTEQAGVLVAERVKSDLEHHHHHH”, the protein production entry was “not failed”.

On to “MKAKIYYNGNIITMEDSICGDAILIKDKIIKKIGTKEEVFALKNKDTEIIDLQGKTLMPSFIDSHSHLIAFATTLKLVPLEDATSFKDIVKKIQDFKESLEHHHHHH”, for which the protein production result was “failed”.

“MANVSLNKVDKQALVHQPNLLRECFALLVNAHYQTSPNDLLHLLRDDNSSVYLAMDKQNIIGVILTVEEGGLDDELIEAIQLGQRRPKGHLTPITIINQLGLVKVGKLITSRVMRIAVHPDLQGSGIGKRMLTLLEESVGAHVDYLSTSFGATDELIQFWQQAGYQSIRLGTMRDAASGCYSLLMVRQLANKSQ”: the protein production result was “failed”.

As to “MADERRCGVCRPLGGPRQPWPAGLLHCSSRAIFASLCMPRIVFAPAIQRHVAMPALDVGAATVAAALQAAFAREPRLRGYLLDDQGSLRRHVALFVDGVQVRDRRGLGDPLQDDSEIYVVQALSGGLEHHHHHH”, the protein production result was “failed”.

As to “MGQHEPGAALGRMVRAAWSETLGEDHPDTLAAANRLAGCLVGLRKYAEARDLFADLLPRCERALGWEDPLTLTVVSNLGGCLSALGAHEEARRQCEDIVRRSRLALGPDDPRTLRAASNLAVFLRRLDDHQAALAVWEDTLLRYRRVLGEDHPDTLHAKRDLVALLRAMGEHDRAHAVAGEPLEHHHHHH”, the protein production result is recorded as “failed”.

As for “MATRSCVSRGSAGSAAAGPVEAAIRAKLEQALSPEVLELRNESGGHAVPAGSETHFRVAVVSSRFEGMSPLQRHRLVHEALSEELAGPVHALAIQAKTPAQWRENPQLDISPPCLG”, the protein production entry was “not failed”.

For the sequence “MSLKGLRRLVLDVLKPHEPKTIVFALKLSELENVDGVNIHLSEIDQATENIKITILGNNLDYEQIKGVIEDMGGVIHSVDEVVAGKIIVESVEGHHHHHH”, the protein production result is reported as “not failed”.

Consider “MTIKRVGILGAGKVGIVLAGLALKAGYEVRISGSGSVDKIDLTISTLVPGAIASENAEVVANSDIIILAIPLSRYKNIDPTLLKGKLVIDAMNYWWETDGIREEVLDPTLTSSEQVQNYFKDSTIVKTFNHMGYHNLQEEALPKGDPKRKALFVTGDNHAAVDEVTKFVDSMGFDQVVHYKLTDGIMTEPGSPLFGASLKYQELKQIIDNFDHTDFGRKISSTLNLEHHHHHH”, for which the protein production result is given as “not failed”.

In the case of “KMLDEKFYSKLLGEELDLIICLPPDFSPLYKYPLFIVQDGKDYFQFGKLARHSEELAVNEQIQKAIFIGIPYKTVMDRREKYHPDGEQNEAYIRFLAFELVPYLEERFPSFQMPTSRFL”, the protein production entry is reported as “not failed”.

Take “MNSEKDVMADASAMRTSMHALAVYGATPLFVLLWSGGAIFSRVGLSHASPFAFLTLRFVIALPLLAAIGVARRCMLPAPGTRVRVAVTGALMIGGYSISYLLALDFGMTPGVLATVLGVQPILTLLWMERRVSVARLAGLTLALAGLVTIVADSLMAARFSMAGWGAALAALACMTVGAIGQKGIRQAAVEILPLQYTVALAMCLLCVPFQPFRFEHVPGFFFPLLWMGIVISVVATLLFYRLIQAGNLVNVTSLFYLVPPVTVLLDFVALSNRPAPLALVGMIAIPVGLALAFRAGR”: the protein production result is “failed”.

Turning to “MSQTKIEWADKVWNPVSGCTKISEGCQNCYAERMSKRLAGRCGYPAEEPFKVTPHPEKLGEPLKWRKPLRIFVNSMSDLFHADVPDKFIINVLSMIAEASHHTFLILTKRPERMRELLNHDTIANDVWLQTSRGVNAERSPWPLPNLWLGVSAENQAAADERIPILLQTPAAVRFVSVEPMLSEVNLSRYLKRPICKHWGRNGDPNIYGRYFWGKQALVGAGWVGIDWVICGGETGPGARPMHPVWVRDLRDQCRVAGTPFFFKSFGEYVRVGECMNEEDDEEFYSKSSAAGTNVQRLNLQGGMGYHGPKSIYMQRIGKKRAGRELDGRTWEEFPLEHHHHHH”, the protein production entry is “failed”.

For “GVLDDIRFGVRRTLNARIASQAQWYALGAEQLARTRIAQLMDREPNKTTLEGGWNGRVISFPIEQGRMEAKLTDATGCFNLNSVVEANQGEPFRRRELGVRQFTTLLSLVGVSNGPELAENLADWMDSNDVGRAEAEDPGYAQLAQPYRTAGGPLAEVSELRAIRGFTPSVYAALRPYVCALPTTDLSPINVNTLPPERALLLTALTEGRIGRETAARVLSGRPVNGWPDAQAFWGQQALVATPPGDVVRDQIKFRTRFFALDSQIVFADMPVFMTALFETPSASKVILA”, the protein production entry is “failed”.

Take “MSPMRIGLVCIRGSVPAFENFGFLPTDIVGSNGLVNGSRAHRVLDGIIIPGGSIVESGSLSPELAFEIRRMASDGKFVLGICSGFQALAERTDIGRKSPCPVYREGLGLLNVTFHPMISNDRVEATITGESFLTSGMSGERITGFHCHTYGEIRGDAPEIMKSRIVRADYHERPGEILSGVCSDDGNVAGTMVHGCLDENQTLVSNILKFLDADETARERILEANRKLREALRSELGISTGIRVMDRGGTRGTPPAIMIASTGSDSGKTFILTGLAGALRRRGLRVGVIKVGPDVRDIVPALYLIKEPMEEHSSIRIGRLGWMELRDVLESVRGRYDIILIEGVMSILTGLLNDITPYSGAEIALAAGIPLIMVAGCSKGGIESAVVDLDAHISVLEGLGLEVSCGILNRVYDMDIFERASGGRYLAIPRVEMSERGGTPEVEIKLEDFCLKAMETVEEHLDVDTLISFAKKPEFRGYMGPEEIKKVFSPLEHHHHHH”: the protein production result is recorded as “failed”.

Regarding “MSPKTTKKIAILTSGGDAPGMNATLVYLTRYATSSEIEVFFVKNGYYGLYHDELVPAHQLDLSNSLFSAGTVIGSKRFVEFKELKVREQAAQNLKKRQIDYLVVIGGDGSYMGAKLLSELGVNCYCLPGTIDNDINSSEFTIGFLTALESIKVNVQAVYHTTKSHERVAIVEVMGRHCGDLAIFGALATNADFVVTPSNKMDLKQLESAVKKILQHQNHCVVIVSENIYGFDGYPSLTAIKQHFDANNMKCNLVSLGHTQRGFAPTSLELVQISLMAQHTINLIGQNKVNQVIGNKANVPVNYDFDQAFNMPPVDRSALIAVINKNII”, the protein production result is “failed”.

Consider “MTELMGQILGDRYELLRELGSHPGRRTYLALDRWHYEQVVLKLLLFGGGITWDDFKLFEREVAVLQTLDHPAIPRYLDYFEINTPDLKGFALVQTYIEAKSLALWQAEGRVFSEGDLRLLADRLLDILIYLHSRQPPVIHRDIKPTNILLGDRSGHDLGKVYLVDFGAVQTAIAGSTRTVVGTYGYMPPEQFGGKTLPASDLYALGMTLIYLATATPPDELPQKELRVQFQPLVSLSPPFIRWLEKMVAPALEERFDSATAARHALKQLDRSAEDASLITKTPPYGSRLQVRESPQGLLVHIPPVGLNASLFFLIPFAVAWNGFLVVWYSLAIASGFWLMAVFATGHLAVGLGLIGGILYRLLGWQVLMVSPKDLRFYEHILGFRWRHAKVLPLEVIEEIELQPRGTCRHQEDDRQQLWSKLVIRAGSQEIELTENAPRVTSRDLEWLAYTLGRYLGRRVTQARQDCRST”, for which the protein production result is “failed”.

For “MSLNGNGSIELKGTVEEVWSKLMDPSILSKCIMGCKSLELIGEDKYKADLQIGIAAVKGKYDAIIEVTDIKPPYHYKLLVNGEGGPGFVNAEGVIDLTPINDECTQLTYTYSAEVGGKVAAIGQRMLGGVAKLLISDFFKKIQKEIAKSKQEASEGHHHHHH”, the protein production entry is listed as “not failed”.

“MEFLIILLLLVLNGIFAMYEIALVSSSKARLETLAGKGNKSARGVLKQLEEPEKFLSTIQIGITLIGIVSGAYGGVAIADDLVPLFSLIPGAEAYARNLAMITTVVIITYLSLIIGELVPKSIALSNPERYATLFSPIMILLTKVSYPFVWFLSISTRLLNRIIGVKNEERPMTQEEIKMILHQSSEQGVIDKEETEMLRDVFRFSDKRANELMTHRRDLVIFHPDDTKDKVMKTIEEEHYSKYLLVDERKDEIIGVVSVKDIILMVGNKKEFNLREIARPALFIPESLYANKILELFKKNKNKFGVVVNEYGSTEGIITLHDLTESIFGDILEEDDTEEEDIVRRQDGSMLVEASMNIKDFMEEMGILSYEDLEDEDFTTLGGLAMFLLGGIPKAGDIFTYKNLQFEVVDMDRGRVDKLLVIKRDEEE”: the protein production result is “failed”.

As to “MGYKDEIGVIGIDDAPFNKFDKEALIVGTYMRGNKLVDEISFKKIEKDGFDSTEKILKIVKDKHFTKINAIFLDGVTFGGFNIADIVKIYNETKIPVIAVMEKEPDLLKMKSALKKYFFDFPEKIEMLESFPKPEPFENIFIQCIGISFEDACKLIKKTRLRSKIPECLRISHLVGRGFLNME”, the protein production result was “failed”.

As to “MHNLVPAPKQTQSVLIKNATVHTVIQGVLTNTDVLIENGKISALGPQLSTNTTASTQVVDASGKHLYPGLIALDTSLGLEHHHHHH”, the protein production entry is on record as “failed”.
